From article PMC7118906 (2020)

Target: GPI (Homo sapiens, UniProt P06744)
Test: MST

B1: GPD2 (protein)
chain: ADCISEPVNREPPSREAQLLTLQNTSEFDILVIGGGATGSGCALDAVTRGLKTALVERDDFSSGTSSRSTKLIHGGVRYLQKAIMKLDIEQYRMVKEALHERANLLEIAPHLSAPLPIMLPVYKWWQLPYYWVGIKLYDLVAGSNCLKSSYVLSKSRALEHFPMLQKDKLVGAIVYYDGQHNDARMNLAIALTAARYGAATANYMEVVSLLKKTDPQTGKVRVSGARCKDVLTGQEFDVRAKCVINATGPFTDSVRKMDDKDAAAICQPSAGVHIVMPGYYSPESMGLLDPATSDGRVIFFLPWQKMTIAGTTDTPTDVTHHPIPSEEDINFILNEVRNYLSCDVEVRRGDVLAAWSGIRPLVTDPKSADTQSISRNHVVDISESGLITIAGGKWTTYRSMAEDTINAAVKTHNLKAGPSRTVGLFLQGGKDWSPTLYIRLVQDYGLESEVAQHLAATYGDKAFEVAKMASVTGKRWPIVGVRLVSEFPYIEAEVKYGIKEYACTAVDMISRRTRLAFLNVQAAEEALPRIVELMGRELNWDDYKKQEQLETARKFLYYEMGYKSRSEQLTDRSEISLLPSDIDRYKKRFHKFDADQKGFITIVDVQRVLESINVQMDENTLHEILNEVDLNKNGQVELNEFLQLMSAIQKGRVSGSRLAILMKTAEENLDRRVPIPVDRSCGGL
For B1, the Kd was 8.59 nM.
